No end group written: not given here.
T1: Fas receptor on 661W photoreceptor cells (UniProt P25446 22-327, limits assumed)
T1 sequence (looked up): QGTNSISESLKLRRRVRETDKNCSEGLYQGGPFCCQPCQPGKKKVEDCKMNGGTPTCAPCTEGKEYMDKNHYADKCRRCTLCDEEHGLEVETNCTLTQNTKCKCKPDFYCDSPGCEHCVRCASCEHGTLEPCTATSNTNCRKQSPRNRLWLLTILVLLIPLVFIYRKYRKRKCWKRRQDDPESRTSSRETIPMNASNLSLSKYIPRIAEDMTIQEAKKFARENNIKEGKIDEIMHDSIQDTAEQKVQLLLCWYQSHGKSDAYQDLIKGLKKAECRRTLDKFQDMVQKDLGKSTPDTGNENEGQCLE


Target: T1, Fas receptor on 661W photoreceptor cells
Assay: cell-based or functional assay

caspase 8 activity in 661W cell lysates (dose of peak activity) | increase of caspase 8 activity in 661W cells | EC50, inhibition of FasL-induced caspase 8 activation in 661W cells | fold potency against Met-12 by IC50 determination | fold potency against Met-12 by the concentration of maximal inhibition | Molecule
500 ng/mL | 20 to 30% | – | – | – | human recombinant FasL (from UniProt P48023 134-281) (ligand)
– | – | 0.4 µM | 10 fold | ~3 fold | HHIYLGAVNYIY-NH2 (also: trihydrochloride salt) [Compound 1 (His-His-Ile-Tyr-Leu-Gly-Ala-Val-Asn-Tyr-Ile-Tyr-NH2), C-terminal amide of Met-12]
– | – | 4 µM | – | – | HHIYLGAVNYIY (also: trihydrochloride salt) [Met-12 (HHIYLGAVNYIY)]

— patent US20190201500A1 (ONL THERAPEUTICS, published 2019)
